Test results published in patent US20260098102A1 (NATIONAL UNIVERSITY CORPORATION KOBE UNIVERSITY, published 2026).
Numbering of substitutions follows the chain as printed. One block for each binder: values may come before it.

What was measured:
[1] = target: T1, human SIRPA_V4 (human, UniProt P78324 31-504); test: cell-based ELISA on 293α cells expressing FLAG-tagged SIRPA_V4; Abs 490 normalized to FLAG tag [iv]
T1 construct: FLAG-tagged (pFLAG V5-DEST), on 293α cells; also called human SIRPA Variant 4
T1 chain: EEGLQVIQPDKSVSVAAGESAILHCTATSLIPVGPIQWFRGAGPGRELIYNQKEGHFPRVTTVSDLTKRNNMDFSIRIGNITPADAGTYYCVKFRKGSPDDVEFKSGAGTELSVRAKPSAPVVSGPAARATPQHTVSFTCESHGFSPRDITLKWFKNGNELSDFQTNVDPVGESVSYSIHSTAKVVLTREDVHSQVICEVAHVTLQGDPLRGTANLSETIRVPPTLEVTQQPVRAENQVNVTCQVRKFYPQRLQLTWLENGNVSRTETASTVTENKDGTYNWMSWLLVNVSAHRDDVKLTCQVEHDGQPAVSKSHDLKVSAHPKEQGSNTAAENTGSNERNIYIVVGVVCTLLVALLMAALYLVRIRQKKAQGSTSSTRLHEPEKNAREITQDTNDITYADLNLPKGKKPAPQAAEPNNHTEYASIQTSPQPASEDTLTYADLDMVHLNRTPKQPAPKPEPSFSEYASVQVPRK
Description: The 293a cells, described in Example 1)-6, were prepared at 5× 10⁵ cells/mL in a 10% FBS-containing DMEM medium. pFLAG V5-DEST-SIRPA_V1-V10, pFLAG V5-DEST-monkey SIRPA, pFLAG V5-DEST-mouse SIRPA, or pFLAG V5-DEST was introduced into the cells using Lipofectamine LTX (Invitrogen), and 100 μL each was aliquoted to a 96-well plate (Corning Incorporated) and cultured overnight in a 10% FBS-containing DMEM medium at 37° C. under a 5% CO₂ condition. The obtained introduced cells were used for cell-based ELISA in a state that they adhered. After the culture supernatant was removed, 50 μL per well of hD13_HIL3, hD13_HIL4h, hD13_H2L2, hD13_H2L3, or cD13 prepared in Examples 6 and 7 or a control antibody was added to each of various SIRPA genes-introduced cells at a final concentration of 0 to 10,000 ng/ml, and the mixture was allowed to stand at 4° C. for one hour. Thereafter, binding to human SIRPA was evaluated in the same manner as in Example 5-1.

[2] = target: T2, mouse SIRPA variant hmSIRPA_Δ2 (mouse (with human residues), UniProt P97797 35-513); test: cell-based ELISA on 293α cells expressing FLAG-tagged hmSIRPA_Δ2; Abs 490 normalized to FLAG tag [iii]
T2 construct: FLAG-tagged (pFLAG V5-DEST), on 293α cells; also called hmSIRPA_Δ42 [sic]
T2 chain: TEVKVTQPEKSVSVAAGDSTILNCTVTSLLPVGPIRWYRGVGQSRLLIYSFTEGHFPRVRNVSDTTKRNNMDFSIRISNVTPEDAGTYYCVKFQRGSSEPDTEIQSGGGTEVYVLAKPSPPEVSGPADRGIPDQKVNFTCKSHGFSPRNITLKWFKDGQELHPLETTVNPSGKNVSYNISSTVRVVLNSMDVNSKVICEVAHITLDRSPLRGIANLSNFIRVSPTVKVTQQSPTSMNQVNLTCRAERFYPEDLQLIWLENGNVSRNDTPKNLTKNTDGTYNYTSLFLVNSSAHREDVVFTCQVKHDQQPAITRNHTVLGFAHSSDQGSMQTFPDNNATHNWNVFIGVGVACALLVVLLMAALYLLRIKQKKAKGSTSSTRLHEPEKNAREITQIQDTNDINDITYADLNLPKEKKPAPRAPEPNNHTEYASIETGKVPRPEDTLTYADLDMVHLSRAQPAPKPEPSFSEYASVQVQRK
Description: After the culture supernatant of 293α cells into which the pFLAG V5-DEST-hmSIRPA_Δ0, Δ1, and Δ2 expression vector prepared in 2)-1-2-2 was introduced and the pFLAG V5-DEST-introduced 293α cells was removed, 50 μL per well of four different D13 humanized anti-human SIRPA antibodies and a chimeric anti-human SIRPA antibody diluted with 5% FBS-containing PBS to a final concentration of 10,000 ng/mL were added to these cells, and the mixture was allowed to stand at 4° C. for one hour. Further, 50 μL per well of an anti-FLAG M2 antibody (SIGMA) diluted with 5% FBS-containing PBS to a final concentration of 10,000 ng/mL was added to a well for detecting expression of each SIRPA construct, and the mixture was allowed to stand at 4° C. for one hour. Thereafter, binding to each construct was evaluated in the same manner as in the evaluation of the binding activity of the human SIRPA. Binding of anti-human SIRPA antibodies to each construct was standardized by expression of the FLAG tag.

[3] = target: T3, SIRPA_V1_IgV (human, UniProt P78324 31-149); test: SPR Biacore T200, antibody captured on anti-human IgG (Fc), SIRPA_V1_IgV as analyte, 1:1 model
T3 construct: Secreted recombinant protein from FreeStyle 293F cells
Description: The dissociation constants of hD13_HIL3, hD13_HIL4, hD13_H2L2, and hD13_H2L3 prepared in Example 7 against human SIRPA_V1_IgV and monkey SIRPA_ECD prepared in Example 1 were measured by a capture method of capturing a humanized antibody as a ligand to an Anti-Human IgG (Fc) antibody immobilized using Human Antibody Capture Kit (GE Healthcare Bioscience Corp.) and measuring an antigen as an analyte, using Biacore T200 (GE Healthcare Bioscience Corp.). HBS-EP+ (GE Healthcare Bioscience Corp.) was used as a running buffer, and CM5 (GE Healthcare Bioscience Corp.) was used as a sensor chip. Onto the chip, 1 μg/mL humanized antibody was added at 10 μL/min for 60 seconds, and then a serially diluted solution (0.5 to 8 μg/mL) of human SIRPA protein or a serially diluted solution (1 to 16 μg/mL) of monkey SIRPA protein was added as an antigen at a flow rate of 30 μL/min for 120 seconds, and subsequently the dissociation phase for 600 seconds was monitored. As a regenerant, 3 M magnesium chloride (GE Healthcare Bioscience Corp.) was added at a flow rate of 20 μL/min for 30 seconds. For data analysis, a binding rate constant (ka), a dissociation rate constant (kd), and a dissociation constant (KD; KD=kd/ka) were calculated using a 1:1 binding model.

T3 sequence (P78324 other isoform, or with tags, fused parts or gaps limits assumed): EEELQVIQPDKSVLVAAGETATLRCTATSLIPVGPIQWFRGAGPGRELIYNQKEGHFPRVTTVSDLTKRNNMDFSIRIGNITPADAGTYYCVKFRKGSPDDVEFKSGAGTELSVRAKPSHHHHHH

B2: humanized anti-SIRPA antibody hD13_H1L3 (antibody, human IgG4 S228P, kappa, F234A L235A, V domains shown)
VH: QVQLVESGGGVVQPGRSLRLSCAASGFTFSDYGMIWVRQAPGKGLEWVASISSSSSYIYYADSVKGRFTISRDNSKNRLYLQMNSLRAEDTAVYYCARRYYGFNYPFDYWGQGTMVTVSS
VL: DTQLTQSPSSLSASVGQRVTITCGASKSVRTYMHWYQQKPGKQPKLLIYSASNLEAGVPSRFSGSGSGTDFTLTISSLQPEDFATYYCQQSNEPPYTFGQGTKLEIKR
notes: hH1 heavy chain (IgG4proFALA) and hL3 kappa light chain; also called hD13_HIL3; HIL3 antibody
Kd [3]: 0.0785 nM
EC50 (read off the curve) [1]: ~0.03 µg/mL
binding result [2]: no binding (tested: 10000 ng/mL)

B4: humanized anti-SIRPA antibody hD13_H2L3 (antibody, human IgG4 S228P, kappa, F234A L235A, V domains shown)
VH: B2 VH with Q1E, R78T
VL: B2 VL
notes: hH2 heavy chain (IgG4proFALA) and hL3 kappa light chain; also called H2L3 antibody
Kd [3]: 0.0859 nM
EC50 (read off the curve) [1]: ~0.04 µg/mL
binding result [2]: no binding (tested: 10000 ng/mL)

B5: humanized anti-SIRPA antibody hD13_H1L4 (antibody, human IgG4 S228P, kappa, F234A L235A, V domains shown)
VH: B2 VH
VL: DTVLTQSPDSLAVSLGQRATINCGASKSVRTYMHWYQQKPGQQPKLLIYSASNLEAGVPSRFSGSGSGTDFTLTISSLQAEDVAVYYCQQSNEPPYTFGQGTKVEIKR
notes: hH1 heavy chain (IgG4proFALA) and hL4 kappa light chain; also called hD13_HIL4; hD13_HIL4h
Kd [3]: 0.107 nM
EC50 (read off the curve) [1]: ~0.04 µg/mL
binding result [2]: no binding (tested: 10000 ng/mL)

The remaining lines, values ahead:

EC50 (read off the curve) [1]: ~0.04 µg/mL
binding result [2]: no binding (tested: 10000 ng/mL)
B1: human chimeric anti-SIRPA antibody cD13 (antibody, human IgG4 S228P, kappa, F234A L235A, V domains shown)
VH: EVQLVESGGGLVQPGRSLKLSCLASGFTFSDYGMIWVRQAPGKGLEWVASISSSSSYIYYADTVKGRFTISRENAKNTLFLHMTSLRSEDTALYYCARRYYGFNYPFDYWGQGVMVTVSS
VL: DTVLTQSPALAVSLGQRVTISCGASKSVRTYMHWYQQKSGQQPKLLIYSASNLEAGVPSRFSGSGSGTDFTLTIDPVEADDIANYYCQQSNEPPYTFGAGTKLELKR
notes: Human IgG4proFALA heavy chain, human kappa light chain; also called cD13 (IgG4pf); human chimeric antibody D13

Kd [3]: 0.131 nM
EC50 (read off the curve) [1]: ~0.04 µg/mL
binding result [2]: no binding (tested: 10000 ng/mL)
B3: humanized anti-SIRPA antibody hD13_H2L2 (antibody, human IgG4 S228P, kappa, F234A L235A, V domains shown)
VH: B2 VH with Q1E, R78T
VL: B2 VL with D1A, T2I, Q43A
notes: hH2 heavy chain (IgG4proFALA) and hL2 kappa light chain; also called H2L2 antibody
